Laboratory results: US20080274967
Where a chain is given by its changes, count along the chain named.

What was measured:
[1] = tested on: T1, Recombinant human pigment epithelium derived factor (rPEDF)
T1 sequence: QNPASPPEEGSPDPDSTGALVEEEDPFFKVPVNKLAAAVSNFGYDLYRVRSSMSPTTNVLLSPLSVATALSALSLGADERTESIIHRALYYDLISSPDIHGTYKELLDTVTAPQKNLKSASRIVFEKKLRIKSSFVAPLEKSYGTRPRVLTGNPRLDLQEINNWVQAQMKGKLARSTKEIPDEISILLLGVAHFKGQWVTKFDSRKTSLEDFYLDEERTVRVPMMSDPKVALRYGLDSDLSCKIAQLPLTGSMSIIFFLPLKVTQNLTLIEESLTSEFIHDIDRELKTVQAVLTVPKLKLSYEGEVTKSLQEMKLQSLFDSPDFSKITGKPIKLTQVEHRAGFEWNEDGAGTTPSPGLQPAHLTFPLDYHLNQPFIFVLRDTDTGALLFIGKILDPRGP

[2] = tested on: T2, PEDF AAE variant (S24,114A, 227E)
T2 sequence: T1 sequence with S5A, S95A, S208E

[3] = tested on: T3, PEDF EEA variant (S24,114E, 227A)
T3 sequence: T1 sequence with S5E, S95E, S208A

[4] = tested on: T4, PEDF AAA variant (S24,114, 227A)
T4 sequence: T1 sequence with S5A, S95A, S208A

PEDF S24,114E variant = tested on: T5, PEDF S24,114E variant
T5 sequence: T1 sequence with S5E, S95E

[5] = tested on: T6, PEDF EEE variant (S24,114, 227E)
T6 sequence: T1 sequence with S5E, S95E, S208E

## Catalytic subunit of protein kinase A (PKA)
[1]
  in vitro phosphorylation by PKA ([γ32P]-ATP, SDS-PAGE, autoradiography): rPEDF served as a good substrate to PKA
[2]
  in vitro phosphorylation by PKA: none of the triple mutants was phosphorylated by PKA
[3]
  in vitro phosphorylation by PKA: none of the triple mutants was phosphorylated by PKA
[4]
  in vitro phosphorylation by PKA: none of the triple mutants was phosphorylated by PKA
PEDF S24,114E variant
  in vitro phosphorylation by PKA after brief heat treatment of the variant: a brief heat treatment ... restored its phosphorylation by PKA
[5]
  in vitro phosphorylation by PKA: none of the triple mutants was phosphorylated by PKA
